The record followed here is patent US20060018915A1 (EPIMUNNE, published 2006).

Holding throughout (assay): HLA binding, candidate-epitope table; assay not described
In one test the target is T1, A*0101 (human, UniProt P61769 21-119).
T1 construct: MHC class I molecule; form in the assay not described; also called HLA-A*0101

Another test deals with T2, A*0301 (human, UniProt P61769 21-119).
T2 construct: MHC class I molecule; form in the assay not described; also called HLA-A*0301

The target in a further test is T3, A*3101 (human, UniProt P61769 21-119, limits assumed).
T3 construct: MHC class I molecule; form in the assay not described; also called HLA-A*3101
T3 sequence (P61769 21-119 limits assumed, chain 2 of 2, other chains not shown): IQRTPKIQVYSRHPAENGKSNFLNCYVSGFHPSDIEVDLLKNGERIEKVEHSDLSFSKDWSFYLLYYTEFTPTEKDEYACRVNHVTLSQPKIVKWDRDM

For a further test, the target named is T4, A*6801 (human, UniProt P61769 21-119, limits assumed).
T4 construct: MHC class I molecule; form in the assay not described; also called HLA-A*6801
T4 sequence (P61769 21-119 limits assumed, chain 2 of 2, other chains not shown): as above

T1 sequence (P61769 21-119 limits assumed, chain 2 of 2, other chains not shown): as above
T2 sequence (P61769 21-119 limits assumed, chain 2 of 2, other chains not shown): as above

For GSDCTTIHYNY (also called 52.0136) [p53.226], in the test with A*0101, the IC50 was determined as 68 nM.

Consider VVFGILIKR (also called 1095.51) [Her2/neu.669], for which the values for the IC50 with A*0301, in the test with A*3101 and with A*6801 were 100 nM, 13 nM and 4 nM, respectively.

As usually defined, the IC50 is the point on the concentration scale where inhibition reaches its midpoint. Low readings indicate greater potency, high ones weaker potency.
